Data as given in patent US20160185837A1, “GIP AND GLP-1 RECEPTOR DUAL-AGONISTS FOR THE TREATMENT OF DIABETES” (Medimmune Limited, priority 2013, published 2016).

Key:
Assay in all cases: cell-based or functional assay
[1] = molecular target: mouse GLP-1 receptor (mouse) (UniProt O35659)
[2] = molecular target: human glucagon receptor (human) (UniProt P47871)
[3] = molecular target: human GLP-1 receptor (human) (UniProt P43220)
rat GLP-1 receptor (rat) = rat GLP-1 receptor (rat) (UniProt P32301)
rat GIP receptor (rat) = molecular target: T1, rat GIP receptor (rat) (UniProt P43219)
T1 sequence (looked up): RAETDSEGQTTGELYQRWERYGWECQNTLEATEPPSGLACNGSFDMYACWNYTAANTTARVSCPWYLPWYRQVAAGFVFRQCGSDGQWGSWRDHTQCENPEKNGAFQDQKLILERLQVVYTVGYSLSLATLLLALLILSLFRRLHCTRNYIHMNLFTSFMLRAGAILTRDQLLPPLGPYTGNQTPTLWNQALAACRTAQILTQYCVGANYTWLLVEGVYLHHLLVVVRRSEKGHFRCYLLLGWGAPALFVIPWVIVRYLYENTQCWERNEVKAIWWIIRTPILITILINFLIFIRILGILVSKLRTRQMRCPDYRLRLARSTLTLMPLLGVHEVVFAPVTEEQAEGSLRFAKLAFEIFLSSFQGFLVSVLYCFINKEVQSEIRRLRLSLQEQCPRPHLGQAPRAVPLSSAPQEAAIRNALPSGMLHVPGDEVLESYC

[4] = molecular target: T2, human GIP receptor (human) (UniProt P48546)
T2 sequence (looked up): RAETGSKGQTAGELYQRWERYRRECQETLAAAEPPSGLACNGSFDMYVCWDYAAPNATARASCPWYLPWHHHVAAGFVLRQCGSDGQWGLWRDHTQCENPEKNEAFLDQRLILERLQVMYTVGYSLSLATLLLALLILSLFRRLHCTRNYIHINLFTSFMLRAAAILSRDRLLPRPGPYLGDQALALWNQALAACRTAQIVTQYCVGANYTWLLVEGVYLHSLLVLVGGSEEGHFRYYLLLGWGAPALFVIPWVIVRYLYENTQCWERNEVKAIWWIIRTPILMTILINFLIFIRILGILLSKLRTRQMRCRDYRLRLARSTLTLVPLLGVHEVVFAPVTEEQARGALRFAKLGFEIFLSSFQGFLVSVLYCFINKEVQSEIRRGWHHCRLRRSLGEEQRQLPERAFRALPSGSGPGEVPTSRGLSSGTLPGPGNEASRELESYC

[5] = molecular target: T3, mouse GIP receptor (mouse) (UniProt Q0P543)
T3 sequence (looked up): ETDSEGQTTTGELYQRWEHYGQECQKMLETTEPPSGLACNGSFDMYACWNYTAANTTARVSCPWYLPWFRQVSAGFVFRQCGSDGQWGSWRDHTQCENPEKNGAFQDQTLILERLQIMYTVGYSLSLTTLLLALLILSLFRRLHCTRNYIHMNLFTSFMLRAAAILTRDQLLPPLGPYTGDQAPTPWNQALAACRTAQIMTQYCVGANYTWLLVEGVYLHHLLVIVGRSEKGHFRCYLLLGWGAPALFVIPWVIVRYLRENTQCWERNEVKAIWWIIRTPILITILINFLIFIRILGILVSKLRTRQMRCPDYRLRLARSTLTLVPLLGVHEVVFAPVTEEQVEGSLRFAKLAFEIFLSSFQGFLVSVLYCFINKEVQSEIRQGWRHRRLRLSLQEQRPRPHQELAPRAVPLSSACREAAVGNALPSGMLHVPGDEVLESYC

Chain of human GLP-1 receptor (human) (P43220 24-463): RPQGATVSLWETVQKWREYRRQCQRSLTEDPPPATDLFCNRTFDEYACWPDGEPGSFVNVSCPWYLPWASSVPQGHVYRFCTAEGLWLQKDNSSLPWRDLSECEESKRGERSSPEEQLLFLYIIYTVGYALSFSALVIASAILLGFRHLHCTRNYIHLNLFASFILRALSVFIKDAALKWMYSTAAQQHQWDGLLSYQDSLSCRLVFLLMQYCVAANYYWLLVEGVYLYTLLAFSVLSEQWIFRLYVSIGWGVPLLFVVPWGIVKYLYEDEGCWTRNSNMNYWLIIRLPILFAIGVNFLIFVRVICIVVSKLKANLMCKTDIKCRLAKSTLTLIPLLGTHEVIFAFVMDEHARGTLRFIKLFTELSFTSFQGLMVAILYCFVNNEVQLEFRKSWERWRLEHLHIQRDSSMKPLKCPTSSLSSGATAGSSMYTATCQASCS
Chain of rat GLP-1 receptor (rat) (P32301 22-463): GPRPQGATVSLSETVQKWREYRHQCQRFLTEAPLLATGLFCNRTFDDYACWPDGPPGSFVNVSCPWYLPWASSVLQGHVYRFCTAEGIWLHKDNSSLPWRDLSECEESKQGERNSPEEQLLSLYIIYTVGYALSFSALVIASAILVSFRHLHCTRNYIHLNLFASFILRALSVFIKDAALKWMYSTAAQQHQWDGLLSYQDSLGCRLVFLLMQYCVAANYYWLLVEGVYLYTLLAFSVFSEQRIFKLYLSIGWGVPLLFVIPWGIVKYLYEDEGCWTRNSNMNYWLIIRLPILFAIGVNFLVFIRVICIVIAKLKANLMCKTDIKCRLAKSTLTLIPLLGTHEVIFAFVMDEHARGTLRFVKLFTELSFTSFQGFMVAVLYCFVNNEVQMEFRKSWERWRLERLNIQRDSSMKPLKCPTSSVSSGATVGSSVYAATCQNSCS
Chain of mouse GLP-1 receptor (mouse) (O35659 22-463): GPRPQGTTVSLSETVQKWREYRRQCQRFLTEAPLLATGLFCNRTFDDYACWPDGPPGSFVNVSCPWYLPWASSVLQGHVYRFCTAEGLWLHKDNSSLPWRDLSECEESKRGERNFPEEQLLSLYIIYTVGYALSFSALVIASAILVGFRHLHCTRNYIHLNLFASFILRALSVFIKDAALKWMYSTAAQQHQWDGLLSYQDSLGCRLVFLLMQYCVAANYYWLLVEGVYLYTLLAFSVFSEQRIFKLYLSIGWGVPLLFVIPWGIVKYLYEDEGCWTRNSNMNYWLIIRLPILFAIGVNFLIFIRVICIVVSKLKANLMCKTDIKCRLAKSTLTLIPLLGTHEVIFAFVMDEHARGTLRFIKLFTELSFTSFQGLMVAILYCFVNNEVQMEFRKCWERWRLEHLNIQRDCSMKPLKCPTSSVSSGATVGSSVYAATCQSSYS
Chain of human glucagon receptor (human) (P47871 26-477): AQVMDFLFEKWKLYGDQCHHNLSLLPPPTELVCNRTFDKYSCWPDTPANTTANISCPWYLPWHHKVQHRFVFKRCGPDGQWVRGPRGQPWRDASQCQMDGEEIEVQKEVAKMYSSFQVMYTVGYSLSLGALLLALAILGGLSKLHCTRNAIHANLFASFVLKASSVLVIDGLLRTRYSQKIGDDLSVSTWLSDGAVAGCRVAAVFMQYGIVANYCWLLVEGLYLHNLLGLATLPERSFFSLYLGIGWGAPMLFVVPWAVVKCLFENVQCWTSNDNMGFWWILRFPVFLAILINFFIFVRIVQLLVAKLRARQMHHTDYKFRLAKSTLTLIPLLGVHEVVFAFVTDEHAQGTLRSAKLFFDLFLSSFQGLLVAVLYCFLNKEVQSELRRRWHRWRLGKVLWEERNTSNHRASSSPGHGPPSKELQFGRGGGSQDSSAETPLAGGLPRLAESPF

| Binder | cAMP EC50 [1] [nM] | cAMP EC50 [2] [nM] | cAMP EC50 [3] [nM] | cAMP EC50 (rat GLP-1 receptor (rat)) [nM] | cAMP EC50 (rat GIP receptor (rat)) [nM] | cAMP EC50 [4] [nM] | cAMP EC50 [5] [nM] | cAMP EC50, hGIPr (C3) line [4] [nM] | cAMP EC50, Batch 2 [1] [nM] | cAMP EC50, Batch 2 [2] [nM] | cAMP EC50, Batch 2 [3] [nM] | cAMP EC50, Batch 2 (rat GLP-1 receptor (rat)) [nM] | cAMP EC50, Batch 2 (rat GIP receptor (rat)) [nM] | cAMP EC50, Batch 2 [5] [nM] |
| --- | --- | --- | --- | --- | --- | --- | --- | --- | --- | --- | --- | --- | --- | --- |
| IP332 (Fc fusion) YSEGTFTSDYSIALAAAAQQDFVNWLLAGGGGGGGSGGGGSGGGGSGGGGSGGGGSGGGGSA | 750 | > 1250 | 98 | 50 | 0.044 | 0.026 | 0.21 | – | – | – | – | – | – | – |
| IP334 (Fc fusion) YSEGTFTSDYSIALAAAAQQDFVNWLLKGGGGGGGSGGGGSGGGGSGGGGSGGGGSGGGGSA | > 455 | > 455 | 130 | 120 | 0.056 | 0.029 | 0.3 | – | – | – | – | – | – | – |
| IP333 (Fc fusion) YSEGTFISDYSIALAAAAQQDFVNWLLKGGGGGGGSGGGGSGGGGSGGGGSGGGGSGGGGSA | > 1080 | > 1080 | > 1080 | 430 | 0.015 | 0.0086 | 0.019 | – | – | – | – | – | – | – |
| IP342 (Fc fusion) YSEGTFTSDYSAAAEAAAAAAFAAWLAAAAGGGGGSGGGGSGGGGSGGGGSACPPC | 670 | > 3560 | 75 | 23 | 5.1 | 4.7 | 43 | – | – | – | – | – | – | – |
| IP350 (Fc fusion) YSEGTFTSDYSKLLERQAIDEFIAGLLKGGGGGGGSGGGGSGGGGSGGGGSGGGGSGGGGSA | 2.7 | > 1360 | 0.86 | 0.21 | 0.024 | 0.013 | 1.3 | – | – | – | – | – | – | – |
| IP305 (Fc fusion) YSEGTFISDYSIALAAAAVRDFVNWLLAGGGGGGGSGGGGSGGGGSGGGGSATHTCPPC | > 1130 | 1100 | 230 | 47 | 1.7 | 0.26 | 3.2 | – | – | – | – | – | – | – |
| IP308 (Fc fusion) YSEGTFISDYSIALAAAAAKDFVNWLLAGGGGGGGSGGGGSGGGGSGGGGSATHTCPPC | > 1520 | 1500 | 1300 | 700 | 0.09 | 0.025 | 0.17 | – | – | – | – | – | – | – |
| IP311 (Fc fusion) YSEGTFISDYSIALAAAAIDDFVNWLLAGGGGGGGSGGGGSGGGGSGGGGSATHTCPPC | 1500 | > 2420 | 670 | 61 | 0.43 | 0.074 | 0.95 | – | – | – | – | – | – | – |
| IP314 (Fc fusion) YSEGTFISDYSKLLAAAAVRDFVNWLLAGGGGGGGSGGGGSGGGGSGGGGSATHTCPPC | > 906 | 740 | > 906 | 450 | 0.88 | 0.23 | 15 | – | – | – | – | – | – | – |
| IP302 (Fc fusion) YSEGTFISDYSIALAAAAQQDFVNWLLAGGGGGGGSGGGGSGGGGSGGGGSATHTCPPC | 93 | 1200 | 26 | 7 | 0.055 | 0.018 | 0.083 | – | – | – | – | – | – | – |

Now from value to binder:

| cAMP EC50 [1] [nM] | cAMP EC50 [2] [nM] | cAMP EC50 [3] [nM] | cAMP EC50 (rat GLP-1 receptor (rat)) [nM] | cAMP EC50 (rat GIP receptor (rat)) [nM] | cAMP EC50 [4] [nM] | cAMP EC50 [5] [nM] | cAMP EC50, hGIPr (C3) line [4] [nM] | cAMP EC50, Batch 2 [1] [nM] | cAMP EC50, Batch 2 [2] [nM] | cAMP EC50, Batch 2 [3] [nM] | cAMP EC50, Batch 2 (rat GLP-1 receptor (rat)) [nM] | cAMP EC50, Batch 2 (rat GIP receptor (rat)) [nM] | cAMP EC50, Batch 2 [5] [nM] | Binder |
| --- | --- | --- | --- | --- | --- | --- | --- | --- | --- | --- | --- | --- | --- | --- |
| 0.69 | 610 | 0.18 | 0.058 | 0.02 | 0.0085 | 0.5 | – | – | – | – | – | – | – | IP364 (Fc fusion) YSEGTFTSDFSKLLERQAIDEFIAWLLKGGAAAGGSGSTASSGSGSATGGGGAATHTCPPC |
| 9.2 | > 6790 | 0.72 | 0.9 | 0.035 | 0.0054 | 3.2 | – | – | – | – | – | – | – | IP373 (Fc fusion) YSEGTHTSDFSKLLERQAIDEFIAWLLKGGAAAGGSGSTASSGSGSATGGGGAATHTCPPC |
| 49 | > 11700 | 4 | 3.9 | 0.07 | 0.078 | 0.65 | – | – | – | – | – | – | – | IP375 (Fc fusion) YSEGTHTSLFSKLLERQAIDEFIAWLLKGGAAAGGSGSTASSGSGSATGGGGAATHTCPPC |
| 390 | > 1300 | 4.4 | 8 | 0.0099 | 0.057 | 0.031 | 13 | – | – | – | – | – | – | IP367 (Fc fusion) YSEGTFTSDYRILKERQAIDEFIAWLLKGGAAAGGSGSTASSGSGSATGGGGAATHTCPPC |
| 10 | > 17600 | 0.54 | 0.23 | 0.06 | 0.0095 | 10 | – | – | – | – | – | – | – | IP394 (Fc fusion) YSEGMHTSDLSKLLERQAIDEFIAWLLKGGAAAGGSGSTASSGSGSATGGGGAATHTCPPC |
| 100 | > 10200 | 6.1 | 14 | 0.016 | 0.14 | 0.056 | – | – | – | – | – | – | – | IP366 (Fc fusion) YSEGTFTSDYRMLKERQAIDEFIAWLLKGGAAAGGSGSTASSGSGSATGGGGAATHTCPPC |
| 0.27 | 710 | 0.071 | 0.023 | 0.02 | 0.0089 | 0.68 | – | – | – | – | – | – | – | IP369 (Fc fusion) YSEGTFTSDYSKLLERQAIDEFIAHLLKGGGGGGGSGGGGSGGGGSGGGGSGGGGSGGGGSA |
| 3.6 | 620 | 0.13 | 0.0076 | 0.0089 | 0.0069 | 0.52 | – | – | – | – | – | – | – | IP352 (Fc fusion) YSEGTFTSDYSKLLERQAIDEFIAMLLKGEGGGGGSGGGGSGGGGSGGGGSGGGGSGGGGSA |
| > 4860 | > 4860 | 230 | 370 | 0.22 | 0.2 | 1.3 | – | – | – | – | – | – | – | IP368 (Fc fusion) YSEGTFTSDYRQAIDRQAIDEFIAWLLKGGGGGGGSGGGGSGGGGSGGGGSACPPC |
| 30 | > 1560 | 0.47 | 0.16 | 1.1 | 0.012 | 18 | – | – | – | – | – | – | – | IP385 (Fc fusion) YSEGTFTSDYSIYLDRQAIDEFIAWLLKGGGGGGGSGGGGSGGGGSGGGGSACPPC |
| 1.2 | 330 | 0.11 | 0.057 | 0.19 | 0.0093 | 0.28 | – | 2.5 | 250 | 0.11 | 0.01 | 0.014 | 0.78 | IP396 (Fc fusion) YSEGTFTSDYSKLLERQAIDEFIAWLLKGGGGGGGSGGGGSGGGGSGGGGSACPPC |
